Experimental data published in article PMC6636993.

Key:
[1] = biological target: PVY coat protein N-terminal deletion mutant ΔN49 (potato virus Y (NTN strain)); test: cryo-EM 2D class averages
[2] = biological target: PVY coat protein N-terminal deletion mutant ΔN49 (potato virus Y (NTN strain)); test: SEC-MALS

PVY coat protein N-terminal deletion mutant ΔN49 (domain or fragment)
stoichiometry N [1]: 8
stoichiometry N [2]: 8
